Assay [1] addresses cytochrome c oxidase, regulatory competent, from bovine liver (bovine).
In assay [2] the target is apoptotic protease-activating factor 1 (mouse (endogenous in Cytc knockout embryonic fibroblasts)) (UniProt O88879).
Sequence of UniProt O88879 (O88879 whole entry): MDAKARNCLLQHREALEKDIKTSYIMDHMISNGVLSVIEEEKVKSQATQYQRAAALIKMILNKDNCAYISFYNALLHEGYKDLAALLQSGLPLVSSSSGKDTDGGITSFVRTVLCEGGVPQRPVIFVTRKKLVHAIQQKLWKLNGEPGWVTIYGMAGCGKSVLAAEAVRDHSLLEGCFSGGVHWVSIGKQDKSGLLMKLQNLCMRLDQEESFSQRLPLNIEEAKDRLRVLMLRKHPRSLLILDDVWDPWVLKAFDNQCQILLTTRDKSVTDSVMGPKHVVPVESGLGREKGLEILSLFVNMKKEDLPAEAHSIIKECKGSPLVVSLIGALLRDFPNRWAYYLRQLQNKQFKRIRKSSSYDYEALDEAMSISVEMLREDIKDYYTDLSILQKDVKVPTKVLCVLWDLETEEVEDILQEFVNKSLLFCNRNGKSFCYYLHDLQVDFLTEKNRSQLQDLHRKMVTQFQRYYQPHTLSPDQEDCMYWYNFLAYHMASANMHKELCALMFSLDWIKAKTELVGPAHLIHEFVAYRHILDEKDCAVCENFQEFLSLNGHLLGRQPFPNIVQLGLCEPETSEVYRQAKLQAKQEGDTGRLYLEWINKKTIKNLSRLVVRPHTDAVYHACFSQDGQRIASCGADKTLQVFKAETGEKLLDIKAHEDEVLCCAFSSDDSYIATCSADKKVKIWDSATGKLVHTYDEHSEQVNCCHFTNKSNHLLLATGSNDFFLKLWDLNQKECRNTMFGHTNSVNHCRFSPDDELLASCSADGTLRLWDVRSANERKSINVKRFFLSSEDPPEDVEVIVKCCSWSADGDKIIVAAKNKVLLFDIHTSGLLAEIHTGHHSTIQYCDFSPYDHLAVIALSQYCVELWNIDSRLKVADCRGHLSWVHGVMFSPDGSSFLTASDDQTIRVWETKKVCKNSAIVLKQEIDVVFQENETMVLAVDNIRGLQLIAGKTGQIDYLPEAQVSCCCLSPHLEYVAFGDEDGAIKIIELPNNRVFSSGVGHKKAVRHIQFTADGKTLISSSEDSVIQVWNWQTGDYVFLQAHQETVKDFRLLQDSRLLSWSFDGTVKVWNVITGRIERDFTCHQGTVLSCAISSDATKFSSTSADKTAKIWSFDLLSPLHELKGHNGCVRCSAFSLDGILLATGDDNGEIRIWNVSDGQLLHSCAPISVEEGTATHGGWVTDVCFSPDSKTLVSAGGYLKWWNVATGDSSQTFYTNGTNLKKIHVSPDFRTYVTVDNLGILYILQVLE

Consider “phosphomimetic T58E cytochrome c (from UniProt P62897 1-105) (natural protein)”, for which, in assay [1], the apparent Km of Cytc in the reaction with cow liver COX (150 nM; 0-20 µM Cytc; oxygen consumption, polarography, 25 °C) was 3 µM and the oxygen consumption rate (turnover) of purified cow liver COX with 0-20 µM Cytc, reduction compared to WT Cytc (% reduction compared to WT) was found to be 45. Moreover, the cell-free caspase-3 activity (DEVD-R110 cleavage) in cytosolic extract of Cytc knockout fibroblasts with 20 µg/mL Cytc, reduction compared to WT (% reduction compared to WT) in assay [2] came out at 70.

For the substance “T58I cytochrome c (from UniProt P62897 1-105) (natural protein)”, in assay [1], the apparent Km of Cytc in the reaction with cow liver COX (150 nM; 0-20 µM Cytc; oxygen consumption, polarography, 25 °C) stood at 2.5 µM and the oxygen consumption rate (turnover) of purified cow liver COX with 0-20 µM Cytc, reduction compared to WT Cytc (% reduction compared to WT) turned out to be 25. In assay [2], the cell-free caspase-3 activity (DEVD-R110 cleavage) in cytosolic extract of Cytc knockout fibroblasts with 20 µg/mL Cytc, reduction compared to WT (% reduction compared to WT) came to 60.

On to “wild-type cytochrome c (rodent somatic) (from UniProt P62897 1-105) (natural protein)”, for which, in assay [1], the apparent Km of Cytc in the reaction with cow liver COX (150 nM; 0-20 µM Cytc; oxygen consumption, polarography, 25 °C) is 3 µM.

With “T58A cytochrome c (from UniProt P62897 1-105) (natural protein)”, the apparent Km of Cytc in the reaction with cow liver COX (150 nM; 0-20 µM Cytc; oxygen consumption, polarography, 25 °C) in assay [1] came out at 4.5 µM. This substance yielded a cell-free caspase-3 activity (DEVD-R110 cleavage) in cytosolic extract of Cytc knockout fibroblasts with 20 µg/mL Cytc, reduction compared to WT (% reduction compared to WT) in assay [2] of 50.

The values above are taken from publication PMC6825195.
